Measurements published in patent US20180021429A1, “ANTICANCER AGENTS OR ANTIMETASTATIC AGENTS USING FSTL1 AND COMBINATION DRUG THEREOF” (PHARMA FOODS INTERNATIONAL CO., LTD., priority 2015, published 2018).
“Also recorded” adds a separate entry of the source.

T1: FSTL1 (Homo sapiens, UniProt Q12841)
T1 sequence (Q12841 21-308): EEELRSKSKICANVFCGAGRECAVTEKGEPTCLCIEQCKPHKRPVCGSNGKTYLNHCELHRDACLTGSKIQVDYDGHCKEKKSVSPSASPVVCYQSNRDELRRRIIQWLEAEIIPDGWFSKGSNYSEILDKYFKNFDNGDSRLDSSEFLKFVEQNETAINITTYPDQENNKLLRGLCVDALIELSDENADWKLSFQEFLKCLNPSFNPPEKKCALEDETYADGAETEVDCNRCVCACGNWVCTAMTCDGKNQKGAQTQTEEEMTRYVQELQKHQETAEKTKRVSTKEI

B1: #33: chicken-mouse chimeric anti-FSTL1 antibody clone; variable regions SEQ ID NO: 823 (light), 825 (heavy) (antibody, V domains shown)
VH: AVTLDESGGGLQTPGGGLSLVCKASGFTFSSFNMNWVRQAPGKGLEYVAEISGTGSSTYYGSAVKGRATISRDNGQSTVRLQLNNLRAEDTATYFCARGDGAYSIDAWGHGTEVIVSS
VL: ASTQPSSVSANPGETVEITCSGDSSYYGWFQQKSPGSAPVTVIYDNTNRPSDIPSRFSGSKSGSTATLTITGVRAEDEAVYYCGGYDSSTYDGIFGAGTTLTVL
modifications: mouse constant regions
B2: #13: chicken-mouse chimeric anti-FSTL1 antibody clone; variable regions SEQ ID NO: 815 (light), 817 (heavy) (antibody, V domains shown)
VH: AVTLDESGGGLQTPGGGLSLVCKASGFTFSSVTMQWVRQAPGKGLEWVASICSGSSTYYGPAVKGRATISRDNGQNTVRLQLNNLRAEDTATYYCAKIVGRGRWSCTSAAYNIDAWGHGTEVIVSS
VL: ASTQPSSVSANPGETVKITCSGGGNNYGWYQQKSPGSAPVTVIYNNNNRPSNIPSRFSGSKSGSTNTLTITGVQAEDEAVYYCGSYDSSSDSGIFGAGTTLTVL
modifications: mouse constant regions
B3: #6-55: chicken-mouse chimeric anti-FSTL1 antibody clone; variable regions SEQ ID NO: 783 (light), 785 (heavy) (antibody, V domains shown)
VH: AVTLDESGGGLQTPGGALSLVCKGSGFTFTSVTMQWVRQAPGKGLEWVASVCSGSSTYYAPAVKGRATISRDNGQSTVRLQLSNLRPEDTGTYYCAKIAGRARWSCTSAAYNIDAWGHGTEVIVSS
VL: ASTQPSSVSAIPGETVKITCSGGGNNYGWYQQRSPGSAPVTVIYYNDNRPSNIPSRFSGSTSGSTSTLTITGVQADDEAIYYCGSWDSNTDSGIFGAGTTLTVL
modifications: mouse constant regions

Biological target: T1, FSTL1
Assay: Inhibition of induction of MSCs, cancer-associated MSCs and M-MDSCs by FSTL1 in mouse bone marrow cells (Examples 13 to 15)
Format: cell-based
Design: purchased R&D Systems, Inc. 1694-FN-050
Protocol: The antibody clone (#6-55, #7, […], #13, or #22) was evaluated for its activity by the same testing method as in Example 13. #6-55 was set as a positive control for activity. […] Mouse bone marrow cells were supplemented with FSTL1 and the predetermined concentration of each antibody and cultured for 8 days. 5×10^4 cells/well were separated from each culture system and evaluated for the ability to differentiate into adipocytes using an adipocyte differentiation reagent included in “Mesenchymal Stem Cell Functional Identification Kit (R&D Systems, Inc., Cat. No. SCO10)”. For the evaluation method, the cells were supplemented with the adipocyte differentiation reagent and cultured for 8 days. Then, adipocytes per culture system were counted under a microscope for evaluation. In the graph, none is depicted in the leftmost bar, and the control antibody is depicted in the second bar from the left followed by the anti-FSLT1 antibody clones. Adipocytes were not confirmed for any of the anti-FSLT1 antibodies. It is understood that the differentiation induction of MSCs serving as the original source is inhibited.
Mouse bone marrow cells (bone marrow cells prepared in the same way as in Example 4) were supplemented with 20 ng/mL (final concentration) of FSTL1 and 20.0, 10.0, 5.0, or 2.5 μg/ml (final concentration) of the rat anti-FSTL1 antibody or #6-55. Also, mouse bone marrow cells were supplemented with 20.0 μg/ml (final concentration) each of their respective control antibodies, a rat IgG2b isotype control (R&D Systems, Inc., Cat. No. MAB0061, clone 141945) and an anti-DNP antibody. The cells were cultured for 8 days, and the inhibitory activity of each antibody against the induction of MSCs, cancer-associated MSCs, and M-MDSCs by FSTL1 was evaluated in the same way as in Example 13 (FIG. 40A). […] The inhibition of regulatory T cells shown in Patent Literature 1 (WO2009/028411) is presumably a consequence mediated by the inhibition of MSC induction. […]

[1] = Example 14, #6-55 as positive control

| Molecule | inhibitory activity against the induction of MSCs, cancer-associated MSCs, and M-MDSCs by FSTL1 [1] | inhibitory activity against the induction of MSCs, cancer-associated MSCs, and M-MDSCs by FSTL1 (Example 15, FSTL1 20 ng/mL, antibody 20.0, 10.0, 5.0, or 2.5 μg/ml, dose dependence not confirmed) |
| --- | --- | --- |
| B1 | inhibitory activity equivalent to or higher than that of the positive control | – |
| B2 | inhibitory activity equivalent to or higher than that of the positive control | – |
| B3 | – | at the same level; also recorded: slightly superior |
